Reference: publication PMC8073056

Target: purified full-length Arpin (N-terminal 6xHis-tagged) (human) (UniProt Q7Z6K5)
Assay: SEC-MALS; purified Arpin and purified ARC4 of TNKS2 mixed; 15-mL KW-803 column (Shodex), dn/dc 0.183 mL/g

- stoichiometry N: 1
Substance: ARC4 of TNKS2 (purified)
